A word on the pKd: it is the negative decadic logarithm of the Kd, by convention in mol/L. Read a high pKd as a small Kd.

This is an account of results in publication PMC5861439.

pKd: −log10 of the molar value.

In this assay the target is Saccharomyces cerevisiae Asf1 (2–169) (Saccharomyces cerevisiae) (UniProt P32447). Briefly: MST.
Sequence of Saccharomyces cerevisiae Asf1 (2–169) (Saccharomyces cerevisiae) (P32447 2-169): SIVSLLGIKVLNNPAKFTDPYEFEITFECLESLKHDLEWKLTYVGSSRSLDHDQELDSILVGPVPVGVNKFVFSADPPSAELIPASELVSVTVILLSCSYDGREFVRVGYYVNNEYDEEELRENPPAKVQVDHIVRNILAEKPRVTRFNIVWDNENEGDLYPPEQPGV

Sequence of full-length Saccharomyces cerevisiae Rtt109 (Q07794 whole entry): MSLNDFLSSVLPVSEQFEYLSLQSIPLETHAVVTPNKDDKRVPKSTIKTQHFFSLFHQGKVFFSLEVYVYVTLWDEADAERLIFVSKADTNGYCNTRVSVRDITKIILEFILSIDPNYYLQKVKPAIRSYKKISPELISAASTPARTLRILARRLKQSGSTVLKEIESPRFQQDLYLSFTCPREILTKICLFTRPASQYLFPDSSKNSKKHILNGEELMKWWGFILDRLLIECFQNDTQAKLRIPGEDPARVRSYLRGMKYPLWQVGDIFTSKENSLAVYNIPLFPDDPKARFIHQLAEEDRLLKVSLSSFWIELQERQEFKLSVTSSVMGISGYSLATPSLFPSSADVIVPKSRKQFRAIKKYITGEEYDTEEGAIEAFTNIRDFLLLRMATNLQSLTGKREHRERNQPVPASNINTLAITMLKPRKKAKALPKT
Sequence of Rtt109−Vps75_(2) complex (Q07794 whole entry): as above
Sequence of Rtt109−Vps75_(2) complex (P53853 whole entry): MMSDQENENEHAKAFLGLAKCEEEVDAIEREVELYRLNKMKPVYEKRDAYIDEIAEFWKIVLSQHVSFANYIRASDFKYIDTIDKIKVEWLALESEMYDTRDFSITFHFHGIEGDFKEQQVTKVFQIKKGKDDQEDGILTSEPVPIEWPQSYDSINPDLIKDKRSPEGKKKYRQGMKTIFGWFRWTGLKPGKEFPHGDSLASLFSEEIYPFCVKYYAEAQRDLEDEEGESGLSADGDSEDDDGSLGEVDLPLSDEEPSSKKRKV

The substance “full-length Saccharomyces cerevisiae Rtt109 (from UniProt Q07794 1-436) (enzyme)” gave a pKd of 5.12.

For the substance “Rtt109−Vps75_(2) complex (from UniProt Q07794;P53853)”, the pKd was 4.37.
